Results: US20070036793A1, “Methods for use of an lkb1/strad7mo25 complex” (priority 2003, published 2007)

Molecular target: T1, LKB1 (Mus musculus, UniProt Q9WTK7)
T1 construct: Constructs expressing the full length wild type and kinase dead mouse LKB1 have been described previously; made in house; host or cells: 293 cells, transiently transfected
T1 sequence (Q9WTK7 1-433 limits assumed): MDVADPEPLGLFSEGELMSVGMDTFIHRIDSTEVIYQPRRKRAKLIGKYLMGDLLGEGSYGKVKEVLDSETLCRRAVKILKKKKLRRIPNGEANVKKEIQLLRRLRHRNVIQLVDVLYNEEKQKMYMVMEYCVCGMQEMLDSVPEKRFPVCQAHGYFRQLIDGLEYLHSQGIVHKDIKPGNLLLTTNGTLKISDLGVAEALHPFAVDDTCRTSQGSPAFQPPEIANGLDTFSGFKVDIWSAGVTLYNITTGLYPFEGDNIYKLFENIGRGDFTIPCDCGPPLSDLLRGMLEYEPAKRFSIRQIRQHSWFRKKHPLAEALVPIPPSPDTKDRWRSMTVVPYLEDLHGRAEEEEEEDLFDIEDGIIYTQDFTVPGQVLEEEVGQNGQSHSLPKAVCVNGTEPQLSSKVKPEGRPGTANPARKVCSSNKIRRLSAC
T1 sequence (Q7RTN6 1-431 partner): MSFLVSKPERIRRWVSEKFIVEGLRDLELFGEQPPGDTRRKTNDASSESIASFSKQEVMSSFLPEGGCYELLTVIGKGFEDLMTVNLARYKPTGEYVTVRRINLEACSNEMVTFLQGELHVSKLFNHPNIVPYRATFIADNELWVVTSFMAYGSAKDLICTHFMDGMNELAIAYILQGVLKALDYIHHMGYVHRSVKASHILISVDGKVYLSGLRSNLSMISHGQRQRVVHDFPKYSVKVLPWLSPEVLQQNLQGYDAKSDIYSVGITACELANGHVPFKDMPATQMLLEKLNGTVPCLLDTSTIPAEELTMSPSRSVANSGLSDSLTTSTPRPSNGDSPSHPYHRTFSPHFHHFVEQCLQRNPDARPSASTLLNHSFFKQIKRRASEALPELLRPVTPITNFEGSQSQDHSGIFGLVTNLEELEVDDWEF
T1 sequence (Q9Y376 1-341 partner): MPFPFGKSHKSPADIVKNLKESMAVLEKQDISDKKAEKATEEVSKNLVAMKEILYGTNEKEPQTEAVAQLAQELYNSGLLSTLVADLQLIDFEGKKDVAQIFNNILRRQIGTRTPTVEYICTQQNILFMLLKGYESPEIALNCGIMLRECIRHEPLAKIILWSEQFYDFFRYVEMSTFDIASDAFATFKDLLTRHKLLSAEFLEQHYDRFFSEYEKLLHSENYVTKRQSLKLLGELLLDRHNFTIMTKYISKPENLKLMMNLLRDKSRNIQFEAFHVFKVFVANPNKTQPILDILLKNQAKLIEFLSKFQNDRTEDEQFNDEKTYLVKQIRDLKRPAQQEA
Assay: LKB1 autophosphorylation and phosphorylation of MBP after co-expression with STRAD and MO25 isoforms in 293 cells
Assay type: biochemical
Details: GST-LKB1 co-expressed with STRAD and MO25 isoforms in 293 cells
Protocol: FIG. 9. Activation of LKB1 by association with STRAD and MO25 Isoforms. 293 cells were transfected with constructs encoding GST-LKB1 in the presence or absence of constructs encoding the indicated isoforms of STRAD and MO25. 36 h post-transfection, GST-LKB1 was affinity purified and assayed for autophosphorylation and transphosphorylation of MBP as described in the materials and methods. The reactions were electrophoresed and the gel autoradiographed (top panel). Phosphorylation of MBP by LKB1 at Thr65 was also monitored by immunoblotting with a phosphospecific antibody (T65-P), which recognises MBP phosphorylated by LKB1 at this residue. Each reaction was also immunoblotted with the appropriate epitope tag antibodies to monitor levels of LKB1, STRAD and MO25 isoforms. Similar results were obtained in 3 separate experiments.
LKB1 autophosphorylation and phosphorylation of MBP. […] After incubation for 40 min at 30° C., the reactions were terminated by the addition of 8 μl of sample Buffer. 30 μl was electrophoresed on SDS-polyacrylamide gels, which were then dried and analysed by autoradiography to quantify LKB1 autophosphorylation, MBP and STRADα phosphorylation. 5 μl of each reaction was diluted in 45 μl of 1× SDS Sample Buffer. […]

increase in LKB1 activity relative to LKB1 expressed alone: 4 fold
B1: STRADα: STE20-related pseudokinase (STe20-Related ADaptor protein-α) that binds and activates LKB1 (protein, UniProt Q7RTN6 1-431, looked up)
STE20-related kinase adapter …: T1 sequence (Q7RTN6 1-431 partner)
